Patent US20200339680A1 (Alector, published 2020)

B1: TM-1 (antibody, V domains shown)
VH: QVQLQQSGAELVRPGTSVKVSCKASGYAFTNYLIEWVKQRPGQGLEWIGVINPGSGGTKYNEKLKGKATLTADKSSSTAYMQLSSLTSVDSAVYFCARRGYTIYDFYAMDYWGQGTSVTVSS
VL: DVLMTQTPLSLPVSLGDHASISCRSSQSIVYNNGNTYLEWYLQKPGQSPKLLIYKVSNRFSGVPDRFSGSGSGTDFTLKISRVEAEDLGVYYCFQVSHVPFTFGSGTKLEIK
B2: TM-2 (antibody, V domains shown)
VH: HIQLVQSGPELKKPGETVKISCKASGYTFTEYPMHWVKQAPGKGFRWMGMIYTNTGEPTYAAEFKGRFAFSLETSASTGYLQINNLKNEDSATYFCVTAGYWGQGTLVTVSA
VL: QIVLTQSPAILSASPGEKVTMTCRASSSVSYIHWFLQKPGSSPKPWIYATSNLASGVPFRFIGSGSGTSYSLTISGVEAEDSATYYCQQWSSNPSTFGAGTKLELK
B3: TM-3 (antibody, V domains shown)
VH: QVTLKESGPGIVQPSQTLSLTCSFSGFSLNTLGRGVGWIRQPSGKGLEWLAKIWWNDDKFYYPALKSRLTISKDTSKNQIFLKIANVDTADSATYYCARIAGGTGAAYWGQGTTLTVSS
VL: DIVMTQAAFSNPVTLGTSASISCRSSKSLLHSNGITYLYWYLQKPGQSPQLLISQMSSLASGVPDRFSSGGSGTDFTLRISRVEAEDVGVFYCAQNLELPWTFGGGTKLELK
B4: TM-5 (antibody, V domains shown)
VH: QVQLQQSGTELARPGASVKVSCKASGYIFTTYGITWVKQRGGQGLEWIGEIYPRSDNTYYNEKFKDKATLTADKSSSTAYMELRSLTSEDSAVYFCARSKGSGTGDYWGQGTTVTVSS
VL: DIQMTQSPASLSASVGETVTITCRASENIYIYLAWYQQKQGKTPQLLVYNGKMLAENVPSRFSGSGSGTQFSLKINSLQPEDFGSYYCQHHYGSPPAFGAGTKLELK
B5: TM-6 (antibody, V domains shown)
VH: QVQLQQSGAELVKPGASVKLSCKASGYTFTEYTIHWVKQRSGQGLEWIGWFYPGSTYIDYNEKFKDKATLTADKSSSTVYLELSRLTSEDSAVYFCARHEEDYSNWFPFWGQGTLVTVSA
VL: DIQMSQSSSYLSVSLGGRVTITCKASDHINNWLAWYQQKPGNAPRLLISGATSLETGVPSRFSGSGSGKDYTLSITSLQTEDVATYYCQQYWSSPYTFGGGTKLEIK
notes: mouse IgG (hybridoma)
B6: TM-7 (antibody, V domains shown)
VH: EVQLQQSGPVLVKPGPPVKISCKASGFTFTDYYIHWVKLSHGKSLEWIGLVYPYNGDTDYNQKFKGKATLTVDTSSSTAYMELNSLTSEDSAVYYCARTYYANSPDYWGQGTTVTVSS
VL: DIVMTQSPSSLSVSAGEKVTMSCKSSQSLLNSGNQRNYLAWYQQKPGQPPKLLIYGASTRESGVPDRFTGSGSGTDFTLTISNVQAEDLAVYYCQNDHSYPLTFGAGTKLELK
B7: TM-8 (antibody, V domains shown)
VH: QIQLVQSGPELKKPGETVKISCKASGYTFTDYPMHWVKQAPGKGFKWMGVIYTDTGEPKYAEVFKGRFAFSLETSASTAYLQINNLKNEDTATYFCVRRLAYWGQGTLVTVSA
VL: DIKMTQSPSSMYASLGERVTITCKASQDINSYLSWFQQKPGKSPKTLIFRANRLVDGVPSRFSGSGSGQDYSLTISSLEYEDMGIYYCLQYDEFPLTFGAGTKLEMK
notes: mouse IgG (hybridoma)
B8: TM-9 (antibody, V domains shown)
VH: EVQLVESGGDLVKPGGSLKLSCVASGFTFSGYGMSWVRQTPDKRLEWVATISSGSFYIYYPDSVKGRLTVSRDNAKNTLYLQMSSLKSEDTAIYYCARQNFYYGCEDYWGQGTTLTVSS
VL: DIVMTQAAFSNPVTLGTSASISCRSSKSLLHSNGITYLYWYLQKPGQSPQLLIYQMSNLASGVPNRFSSSGSGTDFTLRISRVEAEDVGVYYCAQNLELPWTFGGGTKLEIK
B9: TM-10 (antibody, V domains shown)
VH: QVQLQQSGAELVKPGASVKISCKGSGYAFSSYWMNWVKQRPGKGLEWIGQIYPGDGDTNYNGKFKGKATLTADKSSTTAYIHLSSLTSEDSAVYFCARWGHYDEAMDDWGQGTSVTVSS
VL: DVVMTQTPLSLPVSLGDQASISCRSSQSLVHSNGKTYLHWYVQKPGQSPKLLIYKISNRFSGVPDRFSGSGSGTDFTLKISRVEAEDLGVYFCSQITHVPWTFGGGTKLESK
B10: TM-24 (antibody, V domains shown)
VH: QVQLKQSGPGQVQPSQSLSITCTVSGFSLSDYGVHWVRQSPGKGLEWLGVIWNNGNTDYNAAFISRLSINKDNSKSQVFFKMTSLQADDTAIYYCVRSLRPLHFDYWGQGTTVTVSS
VL: DIVMTQSPSSLTMSVGQKVTMNCKSSQSLLNSNNQQNYLAWYQQKPGQSPKLLVYFASIRESGVPDRFIGSGSGTDFTLTINSVQAEDLADYFCQQHYSTPFTFGSGTKLEIR
notes: mouse IgG (hybridoma)
B11: TM-31 (antibody, V domains shown)
VH: QVQLQQSGAELAKPGASVKVSCKASGYTFISYWMNWVKQRPGQGLEWIGYINPTSGYTRYNQKFKDKATLTADKSSSTAYMQLSSLTYEDSAVYYCARSPPTVVLIGYFDYWGQGTTLTVSS
VL: DIKMTQSPSSMYASLGERVTFTCKASQDINSYLSWFQQKPGKSPKTLIYRGNGLVDGVPSRFSGSGSGQDYSLTISSLEYEDMGIYYCLQYDEFPFTFASGTKLEIK
notes: mouse IgG (hybridoma)
B12: TM-30 (antibody, V domains shown)
VH: QVQLQQSGPELVKPGASVKLSCKASDNTFTNYDVNWVRQRPGQGLEWIGWIYPRDGTTIYNEKFKGRATLTVDTSSSTAYMELHSLTSEDSAVFFCARTLPQAMDYWGQGTSVTVSS
VL: DVLMTQSPLSLPVSLGDQVSISCRSSQTIVHRNGNTYLEWYLQKPGQSPKLLIYKVSNRFSGVPDRFSGSGSGTDFTLKISRVEAEDLGVYYCFQGSHLPWTFGGGTKLEIK
notes: mouse IgG (hybridoma)
B13: TM-32 (antibody, V domains shown)
VH: EVQLQQSGAELVRPGASVRLSCIASGFNIKDYYMYWVKQRPEQGLEWIGRIDPEDGDTEYVPKFQGKATMTADTSSNTAYLQLSSLTSEDIGVYYCTTRTWDLYYAVDNWGQGTSVTVSS
VL: DVLMTQTPLSLPVSLGDQASISCRSSQNIVHSNGNTYLEWYLQKPGQSPKLLIDKVSNRFSGVPDRFSGSGSGTDFTLKISRVEAEDLGIYYCFQGSHVPFTFGSGTKLEIK
B14: TM-39 (antibody, V domains shown)
VH: HVQRQQSGTELAKPGASVKLSCKTSGYTFTDYWMHWIKQRPGQGLEWIGFINPSSGYTKYNQNFKDKATLTADKSSSTAYMQLSSLTYEDSAVFYCAREAGSISDWYFDVWGTGTTVTVSS
VL: DIVMTQAAPSIPVTPGESVSISCRSSKTLLNSNGNTYLYWFLQRPGQPPQLLIYRMSNLASGVPDRFSGSGSGTAFTLRISRVEAEDVGVYYCMQHLDYPYTFGGGTQLEIK

Assays:
human TMEM106B [1] = target: T1, human TMEM106B (human, UniProt Q9NUM4 2-274); assay: FACS A549;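 note: flow cytometry of cells incubated on ice for 1 h with hybridoma supernatant or purified antibody at 10 µg/mL, dead propidium iodide-positive cells gated out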
T1 construct: full-length, transiently expressed on HEK293 cells, or natively expressed on HeLa, U251 and A549 cells (the cell is named under assay); also the source of the Pepscan peptides; also called huTMEM106B; huTMEM
Method: (§1) All cells were cultured in either T75 or T150 flasks. […] The enzyme was quenched by addition of fresh media, and the cells were then distributed into 96-well plates for FACS analysis.
(§2) FACS analysis was performed as follows. Each cell type was aliquoted in 96-well round bottom plates (2×10^5 cells per well), washed once with FACS buffer (PBS+2% FBS+1 mM EDTA), and incubated with 50 μL of hybridoma supernatant or purified antibody (10 μg/ml in FACS buffer) on ice for 1 hour. […] Following this secondary incubation, the cells were again washed 2× with ice-cold FACS buffer and resuspended in a final volume of 50 μL of FACS buffer+0.25 μl/well propidium iodide (Fisher Scientific #4BDB556463). Analysis was performed on a FACSCanto system (BD Biosciences) or iQue (Intellicyt), with sort gates drawn to exclude dead (i.e., propidium iodide positive) cells.

human TMEM106B [2] = target: T1, human TMEM106B; assay: FACS HeLa
Method: as §1, §2

human TMEM106B [3] = target: T1, human TMEM106B; assay: FACS U251
Method: as §1, §2

mouse TMEM106B = target: T2, mouse TMEM106B (mouse, UniProt Q80X71 2-275); assay: FACS Neuro2a;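 note: flow cytometry of antibody binding to cells: hybridoma supernatant or purified antibody at 10 µg/ml, 1 h on ice, secondary detection, propidium iodide–positive dead cells gated out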
T2 construct: transiently expressed on HEK293 cells, or native on mouse Neuro2a cells; also called moTMEM106B; murine TMEM106B

human TMEM106B [4] = target: T1, human TMEM106B; assay: FACS A549 1 ug/ml
human TMEM106B [5] = target: T1, human TMEM106B; assay: FACS A549 10 ug/ml
Method: (§3) Purified anti-TMEM106B antibodies were evaluated for their binding affinity to various TMEM106B-expressing cell lines including HEK293 transiently transfected with human/cyno/mouse TMEM106B, as well as HeLa cells and A549 cells. Antibodies tested for this experiment were mouse IgGs purified from hybridoma supernatant. Affinity binding to cells was determined as follows. Briefly, 1×10\hat{ }5 cells were aliquoted per well in 96-well round bottom plates and incubated with 50 μL of purified anti-TMEM106B antibody at various concentrations (10× dilutions starting at 10 μg/ml) in FACS buffer (PBS+2% FBS+1 mM EDTA). […] Sorting was performed on a iQue (Intellicyt), with sort gates drawn to exclude dead (propidium iodide+) cells. Binding data was analyzed using median fluorescent intensity (MFI) and graphed in Prism. Values presented are MFI.

human TMEM106B [6] = target: T1, human TMEM106B; assay: FACS HEK+huTMEM 10 ug/ml;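 note: flow cytometric binding of purified mouse IgG antibodies to HEK293 cells transiently expressing human TMEM106B, read as median fluorescence intensity on live cells with propidium iodide-positive cells excluded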
Method: as §3

human TMEM106B [7] = target: T1, human TMEM106B; assay: FACS HEK+huTMEM 0.1 ug/ml;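 note: flow cytometry binding of purified mouse IgG antibodies to HEK293 cells transiently expressing TMEM106B, read as median fluorescence intensity on live cells (propidium iodide negative gating)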
Method: as §3

human TMEM106B [8] = target: T1, human TMEM106B; assay: FACS HEK+huTMEM 1.0 ug/ml;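 note: binding of purified mouse IgG antibodies to HEK293 cells transiently expressing human TMEM106B, read by flow cytometry as median fluorescence intensity of live, propidium iodide-negative cells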
Method: as §3

human TMEM106B [9] = target: T1, human TMEM106B; assay: FACS HEK+huTMEM 0.1 ug/ml (2nd column so headed);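 note: flow cytometry binding of purified anti-TMEM106B mouse IgG to HEK293 cells transiently transfected with TMEM106B, read as median fluorescence intensity on live (propidium iodide-negative) cells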

Binder | MFI (human TMEM106B [1]) [MFI] | MFI (human TMEM106B [2]) [MFI] | MFI (human TMEM106B [3]) [MFI] | MFI (mouse TMEM106B) [MFI] | MFI (human TMEM106B [4]) [MFI] | MFI (human TMEM106B [5]) [MFI] | MFI (human TMEM106B [6]) [MFI] | MFI (human TMEM106B [7]) [MFI] | MFI (human TMEM106B [8]) [MFI] | MFI (human TMEM106B [9]) [MFI]
B1 | 1460 | 253 | 244 | 253 | 364 | 409 | 2380 | 1330 | 2010 | 655
B2 | 1890 | 2530 | 1410 | 2900 | 1090 | 3360 | 55500 | 4730 | 29300 | 1440
B3 | 1800 | 2690 | 1080 | 1980 | 4840 | 7670 | 82300 | 48700 | 89100 | 7700
B4 | 1170 | 1740 | 866 | 1610 | 1970 | 4800 | 59300 | 10800 | 64500 | 2180
B5 | 1100 | 520 | 304 | 371 | 418 | 544 | 581 | 327 | 393 | 294
B6 | 647 | 1070 | 442 | 1200 | 883 | 1810 | 40800 | 9870 | 40000 | 1670
B7 | 554 | 568 | 304 | 370 | 393 | 492 | 465 | 305 | 317 | 301
B8 | 1990 | 2540 | 1540 | 2710 | 4880 | 7090 | 56400 | 28300 | 62100 | 3940
B9 | 823 | 596 | 328 | 604 | 663 | 1090 | 36500 | 21000 | 44400 | 3360
B10 |  |  |  |  | 2880 | 4480 | 66300 | 22000 | 64500 | 3620
B11 |  | 799 | 352 | 325 | 403 | 527 | 6060 | 1390 | 3680 | 596
B12 |  |  |  |  | 3030 | 4040 | 61500 | 18400 | 63500 | 3070
B13 |  |  |  |  | 3930 | 6100 | 61100 | 20300 | 63300 | 4100
B14 |  |  |  |  | 3610 | 5330 | 51900 | 19200 | 55600 | 3850
